B1: library; numbered along this chain (parent)
chain: MRKPRAAVGSGHRKQAASQEGRQKHAKNNSQAKPSACDGLARQPEEVVLQASVSSYHLFRDVAEVTAFRGSLLSWYDQEKRDLPWRRRAEDEMDLDRRAYAVWVSEVMLQQTQVATVINYYTGWMQKWPTLQDLASASLEEVNQLWAGLGYYSRGRRLQEGARKVVEELGGHMPRTAETLQQLLPGVGRYTAGAIASIAFGQATGVVDGNVARVLCRVRAIGADPSSTLVSQQLWGLAQQLVDPARPGDFNQAAMELGATVCTPQRPLCSQCPVESLCRARQRVEQEQLLASGSLSGSPDVEECAPNTGQCHLCLPPSEPWDQTLGVVNFPRKASRKPPREESSATCVLEQPGALGAQILLVQRPNSGLLAGLWEFPSVTWEPSEQLQRKALLQELQRWAGPLPATHLRHLGEVVHTFSHIKLTYQVYGLALEGQTPVTTVPPGARWLTQEEFHTAAVSTAMKKVFRVYQGQQPGTCMGSKRSQVSSPCSRKKPRMGQQVLDNFFRSHISTDAHSLNSAAQ

Variants of: B1
Assay: 8OG:A repair function score (normalized; synonymous = 0, nonsense = -1) (normalized log-likelihood score); higher = more repair activity (WT-like)
Settings: with 8OG:A DNA repair reporter (GFP) in HEK-293 MUTYH KO cells
Procedure, shortened: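 Per-tile Rosace fitness scores were converted to a normalized repair function score anchored on synonymous and nonsense distributions. That scale puts synonymous medians at 0 and nonsense medians at -1. Variants with starting counts under 300 counts per million were discarded. Input came from sorting viable mCherry+ MUTYH knockout HEK-293 cells, carrying lentiviral MUTYH cDNA NNN codon-scan libraries in 10 pg/ml doxycycline and an 8OG:A GFP repair reporter, into GFP+ and GFP− bins at 72 h, three replicates per tile, followed by tile amplicon sequencing.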
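Also: cells sorted at 72 h after reporter transfection.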

| Variant | 8OG:A repair function score |
| --- | --- |
| C278N | -1.1 |
| P129C | -0.403 |
| A99M | -0.378 |
| G222V | -0.622 |
| L396T | -0.534 |
| G412F | -0.473 |
| S487H | 0.00963 |
| S487E | 0.00844 |
| Q50N | 0.00105 |
| G248A | -0.729 |
| S74E | 0.00141 |
| G148K | -0.475 |
| T204I | 0.0296 |
| T204L | -0.0721 |
| C477L | 0.0205 |
| R69Q | -0.519 |
| R69A | -1.46 |
| R69I | -3.35 |
| R69T | -0.172 |
| T417H | -0.254 |
| T417G | -0.208 |
| A461C | -0.0899 |
| R482Y | 0.0178 |
| T130C | -0.578 |

| Variant | 8OG:A repair function score |
| --- | --- |
| Q397L | -0.101 |
| Q397C | -0.496 |
| A405D | -0.0995 |
| A280V | -0.0812 |
| M173S | -0.859 |
| D96T | -1.12 |
| T263M | -0.0448 |
| E350R | -0.162 |
| Y100K | -1.96 |
| Q282M | -0.0222 |
| Q282N | -0.0575 |
| R389K | -0.274 |
| Q132H | -0.0442 |
| Q132M | -0.0607 |
| Q132R | 0.00437 |
| Q132E | -0.0366 |
| Q132D | 0.0351 |
| S486W | 0.0129 |
| L290V | -0.0591 |
| L290M | -0.0856 |
| L131E | -0.608 |
| L131C | -0.139 |
| E106M | -0.994 |
| E256G | -0.676 |

| Variant | 8OG:A repair function score |
| --- | --- |
| L501H | 0.0143 |
| S55A | 0.00283 |
| P383T | 0.0211 |
| P383E | 0.0397 |
| E413C | -0.201 |
| S335C | -0.0251 |
| T476I | -0.074 |
| T476P | -0.0234 |
| L349D | -0.966 |
| D208R | -1.03 |
| D208T | -1.03 |
| L183D | -0.21 |
| L183K | -0.0447 |
| L361V | -0.0292 |
| Q43T | 0.0245 |
| V348Q | -1.64 |
| V348D | -1.83 |
| Q310P | -0.0353 |
| Q310T | 0.0177 |
| S459N | -0.679 |
| P225W | -0.322 |
| V62N | 0.00416 |
| P402W | -0.534 |
| G123P | 0.0736 |

| Variant | 8OG:A repair function score |
| --- | --- |
| G123Q | 0.213 |
| L72M | -0.732 |
| L411E | -0.473 |
| G205H | -0.8 |
| M108S | -1.28 |
| L73V | -0.108 |
| V211F | -0.4 |
| V211H | -0.617 |
| L370N | -0.379 |
| L370H | -0.297 |
| P267G | -0.225 |
| P267Y | -0.838 |
| L313A | -0.4 |
| V327M | -0.375 |
| L109T | -0.266 |
| L109Q | -0.022 |
| W374V | -0.874 |
| H454E | -0.068 |
| I198F | -0.447 |
| L392W | -1.27 |
| R87Q | -0.219 |
| S298Q | -0.0174 |
| G186T | -0.373 |
| G186A | -0.672 |

| Variant | 8OG:A repair function score |
| --- | --- |
| G186W | -1.08 |
| T308W | 0.00192 |
| T308N | 0.0456 |
| G170L | -0.232 |
| K493A | 0.0129 |
| R86F | -1.75 |
| R86C | -0.587 |
| G429W | -0.114 |
| L149R | -0.729 |
| R495L | 0.017 |
| E45T | 0.0748 |
| A196L | -0.68 |
| L315R | -0.0162 |
| Q265P | -0.252 |
| D133W | -0.988 |
| S378V | -0.2 |
| S378K | -0.24 |
| S378E | -0.297 |
| L432A | -0.541 |
| E168M | -0.0593 |
| E168A | -0.135 |
| L257P | -1 |
| L289V | -0.0422 |
| L289G | -0.00218 |

| Variant | 8OG:A repair function score |
| --- | --- |
| G471M | 0.011 |
| V328G | -0.0273 |
| Q472H | -0.152 |
| P365R | -0.0845 |
| S231Y | -0.226 |
| S231P | -0.683 |
| V166K | -0.116 |
| Q435W | -0.125 |
| Q435T | 0.028 |
| Q435P | 0.288 |
| L241R | -1.03 |
| L241H | -1.01 |
| L241C | -0.37 |
| T324L | -0.000813 |
| T324K | 0.056 |
| T116F | -0.000589 |
| T116E | -0.305 |
| P404D | -0.155 |
| R246M | -0.559 |
| L184I | -0.0822 |
| S153V | -0.00826 |
| S153Y | -0.143 |
| V48G | 0.0279 |
| W146M | -0.182 |

| Variant | 8OG:A repair function score |
| --- | --- |
| W146C | -0.255 |
| S480F | -0.0271 |
| R217L | -1.01 |
| R217Q | -1.03 |
| R217K | -1.03 |
| R60L | 0.00645 |
| Q239C | -0.184 |
| P317Y | -0.0115 |
| P317Q | -0.121 |
| L408W | -0.833 |
| L408S | -0.483 |
| R97P | -1.03 |
| R156P | -0.341 |
| V117K | -1.84 |
| R506Q | -0.052 |
| V468T | -0.0398 |
| R154P | -1.06 |
| T179D | 0.248 |
| S276E | -0.0386 |
| R283W | -0.115 |
| A199G | -0.183 |
| A199V | -0.155 |
| A199R | -1.16 |

Reference: the supplement of paper PMC11908140
